Data taken from patent publication US20250145711A1 (Janssen / Centocor, published 2025).

Key:
[1] = target: T1, Human CD3 epsilon (CD3ε), on primary human pan T cells (human, UniProt P07766 23-207); assay: flow cytometry on human T cells, anti-human IgG Fc A647 detection
T1 construct: Endogenous CD3 in the TCR complex on T cells; also called T-cell surface glycoprotein CD3 epsilon chain; T3E
In short: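 Cryopreserved primary human pan T cells (50,000/well) incubated 1 hr at 37 °C with serially diluted bispecific antibodies; bound antibody detected with A647 anti-human IgG Fc (2 ug/mL, 30 min on ice). Read by iQue flow cytometry, gated on singlets and SYTOX green-negative live cells; secondary-alone wells as background.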

[2] = target: T1, Human CD3 epsilon (CD3ε), on primary …; assay: cell-based or functional assay
[3] = target: T1, Human CD3 epsilon (CD3ε), on primary …; assay: cell-based or functional assay; remark: listed apart in the source

T1 sequence (P07766 23-207 limits assumed): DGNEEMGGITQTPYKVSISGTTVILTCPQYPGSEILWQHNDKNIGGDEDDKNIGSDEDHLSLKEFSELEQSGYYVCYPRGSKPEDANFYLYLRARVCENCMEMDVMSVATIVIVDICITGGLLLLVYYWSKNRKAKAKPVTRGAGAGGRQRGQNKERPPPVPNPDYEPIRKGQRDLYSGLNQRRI

Row | Binder | EC50 [1] | EC50, Cytotoxicity [2] | H929 Killing EC50 [3]
1 | BC3B108 (bispecific antibody, human IgG1, kappa, L234A L235A, IgG1 BCMAxCD3; HC1: CD3B2051-N106G HL scFv-Fc; also called BC3B108.001; B2051 HL NtoG) QVQLVQSGAEVKKPGSSVKVSCKASGYTFTRSTMHWVKQAPGQGLEWMGYINPSSAYTNYNQKFQGRVTLTADKSTSTAYMELSSLRSEDTAVYYCASPQVHYDYGGFPYWGQGTLVTVSSGGSEGKSSGSGSESKSTGGSEIVLTQSPATLSASPGERVTLSCSASSSVSYMNWYQQKPGQAPRRLIYDSSKLASGVPARFSGSGSGRDYTLTISSLEPEDFAVYYCQQWSRNPPTFGGGTKVEIKEPKSSDKTHTCPPCPAPEAAGGPSVFLFPPKPKDTLMISRTPEVTCVVVSVSHEDPEVKFNWYVDGVEVHNAKTKPREEQYNSTYRVVSVLTVLHQDWLNGKEYKCKVSNKALPAPIEKTISKAKGQPREPQVYVYPPSREEMTKNQVSLTCLVKGFYPSDIAVEWESNGQPENNYKTTPPVLDSDGSFALVSKLTVDKSRWQQGNVFSCSVMHEALHNHYTQKSLSLSPG heavy: not shown light: EIVLTQSPGTLSLSPGERATLSCRASQSISSSFLTWYQQKPGQAPRLLIYGASSRATGIPDRFSGGGSGTDFTLTISRLEPEDFAVYYCQHYGSSPMYTFGQGTKLEIKRTVAAPSVFIFPPSDEQLKSGTASVVCLLNNFYPREAKVQWKVDNALQSGNSQESVTEQDSKDSTYSLSSTLTLSKADYEKHKVYACEVTHQGLSSPVTKSFNRGEC | 11 nM | 0.0853 nM | 0.0853 nM
2 | BC3B115 (bispecific antibody, human IgG1, kappa, L234A L235A, IgG1 BCMAxCD3; HC1: CD3B2089-N106S HL scFv-Fc; also called BC3B115.001; B2089 HL NtoS) QVQLVQSGAEVKKPGSSVKVSCKASGYTFTRSTMHWVRQAPGQGLEWMGYINPSSAYTNYAQKFQGRVTLTADKSTSTAYMELSSLRSEDTAVYYCASPQVHYDYSGFPYWGQGTLVTVSSGGSEGKSSGSGSESKSTGGSEIVLTQSPATLSASPGERVTLSCSASSSVSYMNWYQQKPGQAPRRWIYDSSKLASGVPARFSGSGSGRDYTLTISSLEPEDFAVYYCQQWSRNPPTFGGGTKVEIKEPKSSDKTHTCPPCPAPEAAGGPSVFLFPPKPKDTLMISRTPEVTCVVVSVSHEDPEVKFNWYVDGVEVHNAKTKPREEQYNSTYRVVSVLTVLHQDWLNGKEYKCKVSNKALPAPIEKTISKAKGQPREPQVYVYPPSREEMTKNQVSLTCLVKGFYPSDIAVEWESNGQPENNYKTTPPVLDSDGSFALVSKLTVDKSRWQQGNVFSCSVMHEALHNHYTQKSLSLSPG heavy: not shown light: EIVLTQSPGTLSLSPGERATLSCRASQSISSSFLTWYQQKPGQAPRLLIYGASSRATGIPDRFSGGGSGTDFTLTISRLEPEDFAVYYCQHYGSSPMYTFGQGTKLEIKRTVAAPSVFIFPPSDEQLKSGTASVVCLLNNFYPREAKVQWKVDNALQSGNSQESVTEQDSKDSTYSLSSTLTLSKADYEKHKVYACEVTHQGLSSPVTKSFNRGEC | 24 nM | 0.155 nM | 0.155 nM
3 | BC3B113 (bispecific antibody, human IgG1, kappa, L234A L235A, IgG1 BCMAxCD3; HC1: CD3B2089-N106G HL scFv-Fc; also called BC3B113.001; B2089 HL NtoG) QVQLVQSGAEVKKPGSSVKVSCKASGYTFTRSTMHWVRQAPGQGLEWMGYINPSSAYTNYAQKFQGRVTLTADKSTSTAYMELSSLRSEDTAVYYCASPQVHYDYGGFPYWGQGTLVTVSSGGSEGKSSGSGSESKSTGGSEIVLTQSPATLSASPGERVTLSCSASSSVSYMNWYQQKPGQAPRRWIYDSSKLASGVPARFSGSGSGRDYTLTISSLEPEDFAVYYCQQWSRNPPTFGGGTKVEIKEPKSSDKTHTCPPCPAPEAAGGPSVFLFPPKPKDTLMISRTPEVTCVVVSVSHEDPEVKFNWYVDGVEVHNAKTKPREEQYNSTYRVVSVLTVLHQDWLNGKEYKCKVSNKALPAPIEKTISKAKGQPREPQVYVYPPSREEMTKNQVSLTCLVKGFYPSDIAVEWESNGQPENNYKTTPPVLDSDGSFALVSKLTVDKSRWQQGNVFSCSVMHEALHNHYTQKSLSLSPG heavy: not shown light: EIVLTQSPGTLSLSPGERATLSCRASQSISSSFLTWYQQKPGQAPRLLIYGASSRATGIPDRFSGGGSGTDFTLTISRLEPEDFAVYYCQHYGSSPMYTFGQGTKLEIKRTVAAPSVFIFPPSDEQLKSGTASVVCLLNNFYPREAKVQWKVDNALQSGNSQESVTEQDSKDSTYSLSSTLTLSKADYEKHKVYACEVTHQGLSSPVTKSFNRGEC | 11.1 nM | 0.0443 nM | 0.0443 nM
4 | BC3B53 (bispecific antibody, human IgG1, kappa, L234A L235A, IgG1 BCMAxCD3; HC1: CD3B2030-N106Q LH scFv-Fc; also called BC3B53.001; B2030 LH NtoQ) EIVLTQSPATLSASPGERVTLSCSASSSVSYMNWYQQKPGQAPRRWIYDSSKLASGVPARFSGSGSGRDYTLTISSLEPEDFAVYYCQQWSRNPPTFGGGTKVEIKGGSEGKSSGSGSESKSTGGSQVQLVQSGAEVKKPGSSVKVSCKASGYTFTRSTMHWVKQAPGQGLEWIGYINPSSAYTNYNQKFQGRVTLTADKSTSTAYMELSSLRSEDTAVYYCASPQVHYDYQGFPYWGQGTLVTVSSEPKSSDKTHTCPPCPAPEAAGGPSVFLFPPKPKDTLMISRTPEVTCVVVSVSHEDPEVKFNWYVDGVEVHNAKTKPREEQYNSTYRVVSVLTVLHQDWLNGKEYKCKVSNKALPAPIEKTISKAKGQPREPQVYVYPPSREEMTKNQVSLTCLVKGFYPSDIAVEWESNGQPENNYKTTPPVLDSDGSFALVSKLTVDKSRWQQGNVFSCSVMHEALHNHYTQKSLSLSPG heavy: not shown light: EIVLTQSPGTLSLSPGERATLSCRASQSISSSFLTWYQQKPGQAPRLLIYGASSRATGIPDRFSGGGSGTDFTLTISRLEPEDFAVYYCQHYGSSPMYTFGQGTKLEIKRTVAAPSVFIFPPSDEQLKSGTASVVCLLNNFYPREAKVQWKVDNALQSGNSQESVTEQDSKDSTYSLSSTLTLSKADYEKHKVYACEVTHQGLSSPVTKSFNRGEC | 19.6 nM | 0.0278 nM | 0.0278 nM
5 | BC3B114 (bispecific antibody, human IgG1, kappa, L234A L235A, IgG1 BCMAxCD3; HC1: CD3B2089-N106Q HL scFv-Fc; also called BC3B114.001; B2089 HL NtoQ) QVQLVQSGAEVKKPGSSVKVSCKASGYTFTRSTMHWVRQAPGQGLEWMGYINPSSAYTNYAQKFQGRVTLTADKSTSTAYMELSSLRSEDTAVYYCASPQVHYDYQGFPYWGQGTLVTVSSGGSEGKSSGSGSESKSTGGSEIVLTQSPATLSASPGERVTLSCSASSSVSYMNWYQQKPGQAPRRWIYDSSKLASGVPARFSGSGSGRDYTLTISSLEPEDFAVYYCQQWSRNPPTFGGGTKVEIKEPKSSDKTHTCPPCPAPEAAGGPSVFLFPPKPKDTLMISRTPEVTCVVVSVSHEDPEVKFNWYVDGVEVHNAKTKPREEQYNSTYRVVSVLTVLHQDWLNGKEYKCKVSNKALPAPIEKTISKAKGQPREPQVYVYPPSREEMTKNQVSLTCLVKGFYPSDIAVEWESNGQPENNYKTTPPVLDSDGSFALVSKLTVDKSRWQQGNVFSCSVMHEALHNHYTQKSLSLSPG heavy: not shown light: EIVLTQSPGTLSLSPGERATLSCRASQSISSSFLTWYQQKPGQAPRLLIYGASSRATGIPDRFSGGGSGTDFTLTISRLEPEDFAVYYCQHYGSSPMYTFGQGTKLEIKRTVAAPSVFIFPPSDEQLKSGTASVVCLLNNFYPREAKVQWKVDNALQSGNSQESVTEQDSKDSTYSLSSTLTLSKADYEKHKVYACEVTHQGLSSPVTKSFNRGEC | 3.2 nM | 0.0126 nM | 0.0126 nM
6 | BC3B109 (bispecific antibody, human IgG1, kappa, L234A L235A, IgG1 BCMAxCD3; HC1: CD3B2051-N106Q HL scFv-Fc; also called BC3B109.001; B2051 HL NtoQ) QVQLVQSGAEVKKPGSSVKVSCKASGYTFTRSTMHWVKQAPGQGLEWMGYINPSSAYTNYNQKFQGRVTLTADKSTSTAYMELSSLRSEDTAVYYCASPQVHYDYQGFPYWGQGTLVTVSSGGSEGKSSGSGSESKSTGGSEIVLTQSPATLSASPGERVTLSCSASSSVSYMNWYQQKPGQAPRRLIYDSSKLASGVPARFSGSGSGRDYTLTISSLEPEDFAVYYCQQWSRNPPTFGGGTKVEIKEPKSSDKTHTCPPCPAPEAAGGPSVFLFPPKPKDTLMISRTPEVTCVVVSVSHEDPEVKFNWYVDGVEVHNAKTKPREEQYNSTYRVVSVLTVLHQDWLNGKEYKCKVSNKALPAPIEKTISKAKGQPREPQVYVYPPSREEMTKNQVSLTCLVKGFYPSDIAVEWESNGQPENNYKTTPPVLDSDGSFALVSKLTVDKSRWQQGNVFSCSVMHEALHNHYTQKSLSLSPG heavy: not shown light: EIVLTQSPGTLSLSPGERATLSCRASQSISSSFLTWYQQKPGQAPRLLIYGASSRATGIPDRFSGGGSGTDFTLTISRLEPEDFAVYYCQHYGSSPMYTFGQGTKLEIKRTVAAPSVFIFPPSDEQLKSGTASVVCLLNNFYPREAKVQWKVDNALQSGNSQESVTEQDSKDSTYSLSSTLTLSKADYEKHKVYACEVTHQGLSSPVTKSFNRGEC | 13.8 nM | 0.0426 nM | 0.0426 nM
7 | BC3B110 (bispecific antibody, human IgG1, kappa, L234A L235A, IgG1 BCMAxCD3; HC1: CD3B2051-N106S HL scFv-Fc; also called BC3B110.001; B2051 HL NtoS) QVQLVQSGAEVKKPGSSVKVSCKASGYTFTRSTMHWVKQAPGQGLEWMGYINPSSAYTNYNQKFQGRVTLTADKSTSTAYMELSSLRSEDTAVYYCASPQVHYDYSGFPYWGQGTLVTVSSGGSEGKSSGSGSESKSTGGSEIVLTQSPATLSASPGERVTLSCSASSSVSYMNWYQQKPGQAPRRLIYDSSKLASGVPARFSGSGSGRDYTLTISSLEPEDFAVYYCQQWSRNPPTFGGGTKVEIKEPKSSDKTHTCPPCPAPEAAGGPSVFLFPPKPKDTLMISRTPEVTCVVVSVSHEDPEVKFNWYVDGVEVHNAKTKPREEQYNSTYRVVSVLTVLHQDWLNGKEYKCKVSNKALPAPIEKTISKAKGQPREPQVYVYPPSREEMTKNQVSLTCLVKGFYPSDIAVEWESNGQPENNYKTTPPVLDSDGSFALVSKLTVDKSRWQQGNVFSCSVMHEALHNHYTQKSLSLSPG heavy: not shown light: EIVLTQSPGTLSLSPGERATLSCRASQSISSSFLTWYQQKPGQAPRLLIYGASSRATGIPDRFSGGGSGTDFTLTISRLEPEDFAVYYCQHYGSSPMYTFGQGTKLEIKRTVAAPSVFIFPPSDEQLKSGTASVVCLLNNFYPREAKVQWKVDNALQSGNSQESVTEQDSKDSTYSLSSTLTLSKADYEKHKVYACEVTHQGLSSPVTKSFNRGEC | 31.2 nM | 0.781 nM | 0.78 nM
